Laboratory results from patent US20210292423A1.
Blank lines part the entries; values can stand above or below the substance they belong to.

Columns and labels:
[1] = target: Macaca fascicularis CD3 (TCR complex) on cyno HSC-F cells (Macaca fascicularis) (UniProt Q95LI5); assay: flow cytometry, cyno HSC-F
[2] = target: human CD3 (TCR complex) on primary human T cells or Jurkat cells (human) (UniProt P07766); assay: flow cytometry, Jurkat E6-1
[3] = target: Macaca fascicularis CD3ε/δ-Fc fusion protein (Macaca fascicularis) (UniProt Q95LI8); assay: SPR Biacore, ratio against human CD3εδ
[4] = target: human CD123 (IL3RA) on cells (human) (UniProt P26951); assay: cell-based or functional assay
Chain of human CD123 (IL3RA) on cells (human) (P26951 19-378): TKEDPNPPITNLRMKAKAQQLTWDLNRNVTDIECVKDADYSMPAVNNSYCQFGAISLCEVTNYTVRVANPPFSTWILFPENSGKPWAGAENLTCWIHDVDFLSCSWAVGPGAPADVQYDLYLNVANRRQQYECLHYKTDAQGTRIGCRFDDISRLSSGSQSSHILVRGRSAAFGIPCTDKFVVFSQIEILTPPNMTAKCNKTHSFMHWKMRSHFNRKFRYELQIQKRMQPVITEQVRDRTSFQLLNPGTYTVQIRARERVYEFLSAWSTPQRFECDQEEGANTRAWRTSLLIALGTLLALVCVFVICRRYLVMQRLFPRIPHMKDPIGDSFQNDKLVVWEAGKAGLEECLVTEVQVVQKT

Chain of Macaca fascicularis CD3 (TCR complex) on cyno HSC-F cells (Macaca fascicularis) (Q95LI5 22-198, one chain of several): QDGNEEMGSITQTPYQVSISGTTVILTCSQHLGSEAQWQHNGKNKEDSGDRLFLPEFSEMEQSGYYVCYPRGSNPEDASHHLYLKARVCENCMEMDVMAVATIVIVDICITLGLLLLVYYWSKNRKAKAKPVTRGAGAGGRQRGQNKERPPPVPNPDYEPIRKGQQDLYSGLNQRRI
Chain of human CD3 (TCR complex) on primary human T cells or Jurkat cells (human) (P07766 23-207, one chain of several): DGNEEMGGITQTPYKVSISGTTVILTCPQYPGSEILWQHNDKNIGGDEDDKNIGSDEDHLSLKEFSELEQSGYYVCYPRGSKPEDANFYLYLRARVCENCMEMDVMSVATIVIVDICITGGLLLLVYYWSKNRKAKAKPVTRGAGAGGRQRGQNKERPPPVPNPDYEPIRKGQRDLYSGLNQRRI
Chain of Macaca fascicularis CD3ε/δ-Fc fusion protein (Macaca fascicularis) (chain, as listed by the source mutant, chain 1 of 2): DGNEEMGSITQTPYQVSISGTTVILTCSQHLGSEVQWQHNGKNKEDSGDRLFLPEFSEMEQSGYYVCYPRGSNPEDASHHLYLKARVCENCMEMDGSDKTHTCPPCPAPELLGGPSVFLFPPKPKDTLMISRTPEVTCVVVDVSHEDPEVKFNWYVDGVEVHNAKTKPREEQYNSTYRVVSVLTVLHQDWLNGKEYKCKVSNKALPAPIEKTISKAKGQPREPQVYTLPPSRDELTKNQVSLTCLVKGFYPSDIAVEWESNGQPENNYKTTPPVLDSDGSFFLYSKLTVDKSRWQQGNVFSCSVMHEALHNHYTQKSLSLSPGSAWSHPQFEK
Chain of Macaca fascicularis CD3ε/δ-Fc fusion protein (Macaca fascicularis) (Q95LI8 22-105, stated change not applied, chain 2 of 2): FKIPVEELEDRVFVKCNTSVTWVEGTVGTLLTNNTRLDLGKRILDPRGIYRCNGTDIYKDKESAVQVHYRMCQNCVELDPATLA
Chain of CODV-Fab 7G3 × I2C (bispecific antibody) (light, part): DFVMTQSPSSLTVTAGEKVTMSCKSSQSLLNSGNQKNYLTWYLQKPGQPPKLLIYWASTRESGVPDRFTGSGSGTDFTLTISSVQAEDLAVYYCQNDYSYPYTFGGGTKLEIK
Chain of CODV-Fab 7G3 × I2C (bispecific antibody) (heavy, part): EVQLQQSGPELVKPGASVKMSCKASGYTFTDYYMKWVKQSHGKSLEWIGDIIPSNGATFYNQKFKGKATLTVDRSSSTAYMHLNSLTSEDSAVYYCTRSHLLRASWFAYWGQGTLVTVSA

geometric mean of relative fluorescence intensity (rfu) [1]: 1260 rfu | geometric mean of relative fluorescence intensity (rfu) [2]: 7 rfu
Substance: FN18 (antibody)

Ratio KD(cy)/KD(hu) [3]: 5
Substance: SP-34 (antibody)

Substance: CODV-Fab 7G3 × I2C (bispecific antibody)
Activity EC50 [ng/ml], cytotoxic assay on THP-1 with human T cells [4]: 20 ng/mL
